Laboratory results taken from patent US20080038735A1 (DOMANTIS, published 2008).
Where a chain is given by its changes, count along the chain named. Each block holds one binder with its values, some of them ahead of it.

Key:
TNFa [1] = target: T1, TNFa (UniProt P01375 77-233, biotinylated (sites not given)); assay: not stated (told as a known affinity); higher affinity dAb, known affinity
T1 construct: also called biotinylated TNFa; bio-TNFa

TNFa [2] = target: T1, TNFa; assay: ELISA: in vitro translated dAb captured on the plate, incubated with a concentration range of biotinylated TNFa, detected with streptavidin-HRP
Method: (§1) The ligation mixture was transformed to XL-10 gold cells (Stratagene) and cells were plated. […] The typical amplification cycle for this PCR is performed with platinum pfx DNA polymerase (invitrogen) and consists of: initial denaturation of 3 min at 95 C, followed by 25 cycles of 30 seconds at 95 C, 30 seconds at 60 C, and 2 minutes at 68 C; and a final extension at 68 C for 3 minutes. The PCR product is cleaned on a Qiagen spin column, eluted and the DNA concentration determined by OD 260/280. The cleaned PCR product is used for in vitro transcription/translation (IVT). A typical 50 μl IVT reaction consists of 500 ng of DNA, 2.0 λl methionine (5 mM), 1.5 μl oxidized glutathione (100 mM) (Sigma), 35 μl bacterial extract, e.g. EcoPro (Novagen), and 11 μl H₂O. The IVT reaction can be performed for 1 up to 4 hours at temperatures between 20 C and 37 C. After IVT, the reaction is diluted 1 in 10 in PBS+0.2% tween-20. Fifty μl are added to an ELISA plate, that has been coated with anti-HA (3F10, Roche) (1 μg/ml in PBS), and incubated for 1 hour at room temperature. After washing, a concentration range (0-500 nM) of biotinylated antigen, i.e. TNFa, is added and incubated on the plate for 1 hour. Again, plate is washed and streptavidin conjugated to horse radish peroxidase (Streptavidin-HRP, Amersham) at a dilution of 1:3500 is added and incubated on the plate for 30 minutes.

TNFa [3] = target: T1, TNFa; assay: ELISA: in vitro translated E5 construct captured on the plate, incubated with a concentration range of biotinylated TNFa, streptavidin-HRP; the sheet does not say whether E5 is free or fused to Tus
Method: as §1

T1 sequence (P01375 77-233 limits assumed): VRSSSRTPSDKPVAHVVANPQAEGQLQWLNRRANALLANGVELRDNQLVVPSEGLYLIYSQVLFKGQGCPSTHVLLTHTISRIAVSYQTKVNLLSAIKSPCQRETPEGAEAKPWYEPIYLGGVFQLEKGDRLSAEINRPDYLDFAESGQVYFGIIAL

Kd (TNFa [1]): 50 nM
EC50 (read off the curve) (TNFa [2]): ~7 nM
B1: Vk(TAR1-5-19) (other)
VL: MASTDIQMTQSPSSLSASVGDRVTITCRASQSIDSYLHWYQQKPGKAPKLLIYSASELQSGVPSRFSGSGSGTDFTLTISSLQPEDFATYYCQQVVWRPFTFGQGTKVEIKRAA
notes: Vk domain antibody tested as free dAb; also called free dAb; monomeric domain antibody in solution

binding result (TNFa [3]): no binding (tested: 1000 nM)
B2: Vk(E5) (other)
VL: B1 VL with I33V, D34S, H38N, S54L, E57R, V95N, V96W, R98L, F100P
notes: also called Anti-beta-galactosidase Vk clone E5; 7t^3T.Vk(E5)
